B1: ChiLob7/4 hIgG2 C232S κC214S (cross-over) (antibody, V domains shown)
VH: EVQLQQSGPDLVKPGASVKISCKTSGYTFTEYIMHWVKQSHGKSLEWIGGIIPNNGGTSYNQKFKDKATMTVDKSSSTGYMELRSLTSEDSAVYYCTRREVYGRNYYALDYWGQGTLVTVSS
VL: DIQMTQTTSSLSASLGDRVTITCSASQGINNYLNWYQQKPDGTVKLLIYYTSSLHSGVPSRFSGSGSGTDYSLTISNLEPEDIATYYCQQYSNLPYTFGGGTKLEIK
B2: ChiLob7/4 hIgG2 C232S + K228C κC214S (cross-over + K228C) (antibody, V domains shown)
VH: B1 VH
VL: B1 VL
B3: ChiLob7/4 hIgG2 C232S + T222C κE123C + κC214S (cross-over + T222C κE123C) (antibody, V domains shown)
VH: B1 VH
VL: B1 VL

What was measured:
[1] = target: hCD40 (as used in SPR) (human) (UniProt P25942); experiment: SPR
Chain of hCD40 (as used in SPR) (human) (P25942 21-277): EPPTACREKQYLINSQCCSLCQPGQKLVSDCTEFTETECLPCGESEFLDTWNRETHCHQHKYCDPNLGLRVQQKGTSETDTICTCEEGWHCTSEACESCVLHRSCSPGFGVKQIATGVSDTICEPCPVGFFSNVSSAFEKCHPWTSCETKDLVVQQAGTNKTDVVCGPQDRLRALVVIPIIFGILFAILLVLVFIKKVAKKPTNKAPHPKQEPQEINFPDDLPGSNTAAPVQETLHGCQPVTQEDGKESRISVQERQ

[2] = target: hCD40 expressed on Jurkat cells (human, UniProt P25942); experiment: cell-based or functional assay
Chain of hCD40 expressed on Jurkat cells (P25942 21-277): as above

| Kd [1] [nM] | koff [1] [s⁻¹] | EC50 of NF-κB activation (percentage of GFP+ cells, flow cytometry, 24 h) in NF-κB/Jurkat/GFP reporter cells expressing hCD40 [2] [ng/mL] | Molecule |
| --- | --- | --- | --- |
| 1.97 | 0.000164 | – | ChiLob7/4 hIgG2 wild type (from UniProt P01859) |
| – | – | 4.59 | B1 |
| – | – | 1.55 | B2 |
| – | – | 1.55 | B3 |
